US20150374794A1 (Novo Nordisk, published 2015)
Numbered stars: 1 amine (or outer) side, 2 acyl side, 3 side chain; on linkers, the order of the positions; unused ones are H or OH. Square brackets hold non-standard residues; d marks the D form. Side chains are listed from the residue outwards. Ends that are not written are not given here. * marks the point of attachment. C18 diacid = O=C(O)CCCCCCCCCCCCCCCCC(=O)*; γGlu = O=C(O)[C@H](CCC(=O)[*:2])N[*:1]; AEEA = NCCOCCOCC(=O)O; Ac3c = NC1(C(=O)O)CC1; Aib = CC(C)(N)C(=O)O

Key:
[1] = molecular target: T1, human GLP-1 receptor (human, UniProt P43220 24-463); assay: displacement of 125I-GLP-1(7-36)NH2, membranes with human GLP-1R, SPA
T1 construct: whole, on cells; the potency assay used whole cells (clone FCW467-12A/KZ10-1)
Protocol: (§1) The receptor binding of each compound to the human GLP-1 receptor was measured in a displacement binding assay. […] Each derivative was added in a series of concentrations to isolated membranes containing the human GLP-1 receptor and displacement of the labelled ligand was monitored. The receptor binding was reported as the concentration at which half of the labelled ligand was displaced from the receptor, the IC₅₀ value.

[2] = molecular target: T2, human glucagon receptor (human, UniProt P47871 26-477); assay: cell-based or functional assay
[3] = molecular target: T1, human GLP-1 receptor; assay: cell-based or functional assay
[4] = molecular target: T2, human glucagon receptor; assay: displacement of 125I-glucagon, membranes with human glucagon receptor, SPA
Protocol: as §1, with “human glucagon” for “human GLP-1”, “ligand is” for “ligand was”

T2 sequence (P47871 26-477): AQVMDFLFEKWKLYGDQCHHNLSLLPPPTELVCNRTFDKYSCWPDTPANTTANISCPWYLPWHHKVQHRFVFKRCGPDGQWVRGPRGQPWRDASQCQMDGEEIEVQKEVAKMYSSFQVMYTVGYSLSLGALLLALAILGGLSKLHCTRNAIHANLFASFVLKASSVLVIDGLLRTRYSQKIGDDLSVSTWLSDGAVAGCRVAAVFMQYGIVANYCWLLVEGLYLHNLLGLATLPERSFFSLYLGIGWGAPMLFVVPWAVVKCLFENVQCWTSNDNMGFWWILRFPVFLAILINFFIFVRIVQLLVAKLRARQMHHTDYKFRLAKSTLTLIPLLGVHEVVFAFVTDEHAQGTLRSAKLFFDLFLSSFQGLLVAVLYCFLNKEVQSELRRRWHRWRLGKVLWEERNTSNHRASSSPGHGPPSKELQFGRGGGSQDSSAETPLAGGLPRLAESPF

B1: N^ε29-[(4S)-4-carboxy-4-[[(4S)-4-carboxy-4-[[2-[2-[2-[[2-[2-[2-[[(4S)-4-carboxy-4-(17-carboxyheptadecanoylamino)butanoyl]amino]ethoxy]ethoxy]acetyl]amino]ethoxy … (peptide)
peptide: H[Aib]QGTFTSDLSKYLDSRRAREFVQWLLNK([γGlu-γGlu-AEEA-AEEA-γGlu-C18 diacid])-NH2
modifications: N-terminus assumed
SMILES: CC(C)C[C@H](NC(=O)[C@H](CC(C)C)NC(=O)[C@H](Cc1c[nH]c2ccccc12)NC(=O)[C@H](CCC(N)=O)NC(=O)[C@@H](NC(=O)[C@H](Cc1ccccc1)NC(=O)[C@H](CCC(=O)O)NC(=O)[C@H](CCCNC(=N)N)NC(=O)[C@H](C)NC(=O)[C@H](CCCNC(=N)N)NC(=O)[C@H](CCCNC(=N)N)NC(=O)[C@H](CO)NC(=O)[C@H](CC(=O)O)NC(=O)[C@H](CC(C)C)NC(=O)[C@H](Cc1ccc(O)cc1)NC(=O)[C@H](CCCCN)NC(=O)[C@H](CO)NC(=O)[C@H](CC(C)C)NC(=O)[C@H](CC(=O)O)NC(=O)[C@H](CO)NC(=O)[C@@H](NC(=O)[C@H](Cc1ccccc1)NC(=O)[C@@H](NC(=O)CNC(=O)[C@H](CCC(N)=O)NC(=O)C(C)(C)NC(=O)[C@@H](N)Cc1c[nH]cn1)[C@@H](C)O)[C@@H](C)O)C(C)C)C(=O)N[C@@H](CC(N)=O)C(=O)N[C@@H](CCCCNC(=O)CC[C@H](NC(=O)CC[C@H](NC(=O)COCCOCCNC(=O)COCCOCCNC(=O)CC[C@H](NC(=O)CCCCCCCCCCCCCCCCC(=O)O)C(=O)O)C(=O)O)C(=O)O)C(N)=O
[1]
  IC50: 500 pM
[2]
  EC50 GlucR, CRE luciferase reporter gene assay in BHK cells: 104 pM
[3]
  EC50 GLP-1R, CRE luciferase reporter gene assay in BHK cells: 14.7 pM
[4]
  IC50: 7000 pM

B2: N^ε29-[(4S)-4-carboxy-4-[[(4S)-4-carboxy-4-[[2-[2-[2-[[2-[2-[2-[[(4S)-4-carboxy-4-(17-carboxyheptadecanoylamino)butanoyl]amino]ethoxy]ethoxy]acetyl]amino]ethoxy … (peptide)
peptide: H[Aib]QGTFTSDLSKYLESKRAREFVQWLLKT-NH2
modifications: not fully specified
[1]
  IC50: 200 pM
[2]
  EC50 GlucR, CRE luciferase reporter gene assay in BHK cells: 87.1 pM
[3]
  EC50 GLP-1R, CRE luciferase reporter gene assay in BHK cells: 11.8 pM
[4]
  IC50: 7100 pM

B3: N^ε29-[(4S)-4-carboxy-4-[[(4S)-4-carboxy-4-[[2-[2-[2-[[(4S)-4-carboxy-4-(17-carboxyheptadecanoylamino)butanoyl]amino]ethoxy]ethoxy]acetyl]amino]butanoyl]amino]b … (peptide)
peptide: H[Aib]QGTFTSDLSKYLESRRAREFVQWLLNK([γGlu-γGlu-AEEA-γGlu-C18 diacid])-NH2
modifications: N-terminus assumed
SMILES: CC(C)C[C@H](NC(=O)[C@H](CC(C)C)NC(=O)[C@H](Cc1c[nH]c2ccccc12)NC(=O)[C@H](CCC(N)=O)NC(=O)[C@@H](NC(=O)[C@H](Cc1ccccc1)NC(=O)[C@H](CCC(=O)O)NC(=O)[C@H](CCCNC(=N)N)NC(=O)[C@H](C)NC(=O)[C@H](CCCNC(=N)N)NC(=O)[C@H](CCCNC(=N)N)NC(=O)[C@H](CO)NC(=O)[C@H](CCC(=O)O)NC(=O)[C@H](CC(C)C)NC(=O)[C@H](Cc1ccc(O)cc1)NC(=O)[C@H](CCCCN)NC(=O)[C@H](CO)NC(=O)[C@H](CC(C)C)NC(=O)[C@H](CC(=O)O)NC(=O)[C@H](CO)NC(=O)[C@@H](NC(=O)[C@H](Cc1ccccc1)NC(=O)[C@@H](NC(=O)CNC(=O)[C@H](CCC(N)=O)NC(=O)C(C)(C)NC(=O)[C@@H](N)Cc1c[nH]cn1)[C@@H](C)O)[C@@H](C)O)C(C)C)C(=O)N[C@@H](CC(N)=O)C(=O)N[C@@H](CCCCNC(=O)CC[C@H](NC(=O)CC[C@H](NC(=O)COCCOCCNC(=O)CC[C@H](NC(=O)CCCCCCCCCCCCCCCCC(=O)O)C(=O)O)C(=O)O)C(=O)O)C(N)=O
[1]
  IC50: 400 pM
[2]
  EC50 GlucR, CRE luciferase reporter gene assay in BHK cells: 136 pM
[3]
  EC50 GLP-1R, CRE luciferase reporter gene assay in BHK cells: 4 pM
[4]
  IC50: 37700 pM

B4: N^ε29-[(4S)-4-carboxy-4-[[(4S)-4-carboxy-4-[[2-[2-[2-[[(4S)-4-carboxy-4-(17-carboxyheptadecanoylamino)butanoyl]amino]ethoxy]ethoxy]acetyl]amino]butanoyl]amino]b … (peptide)
peptide: H[Aib]QGTFTSDLSKYLDLRRAREFVQWLLNK([γGlu-γGlu-AEEA-γGlu-C18 diacid])-NH2
modifications: N-terminus assumed
SMILES: CC(C)C[C@H](NC(=O)[C@H](CC(C)C)NC(=O)[C@H](Cc1c[nH]c2ccccc12)NC(=O)[C@H](CCC(N)=O)NC(=O)[C@@H](NC(=O)[C@H](Cc1ccccc1)NC(=O)[C@H](CCC(=O)O)NC(=O)[C@H](CCCNC(=N)N)NC(=O)[C@H](C)NC(=O)[C@H](CCCNC(=N)N)NC(=O)[C@H](CCCNC(=N)N)NC(=O)[C@H](CC(C)C)NC(=O)[C@H](CC(=O)O)NC(=O)[C@H](CC(C)C)NC(=O)[C@H](Cc1ccc(O)cc1)NC(=O)[C@H](CCCCN)NC(=O)[C@H](CO)NC(=O)[C@H](CC(C)C)NC(=O)[C@H](CC(=O)O)NC(=O)[C@H](CO)NC(=O)[C@@H](NC(=O)[C@H](Cc1ccccc1)NC(=O)[C@@H](NC(=O)CNC(=O)[C@H](CCC(N)=O)NC(=O)C(C)(C)NC(=O)[C@@H](N)Cc1c[nH]cn1)[C@@H](C)O)[C@@H](C)O)C(C)C)C(=O)N[C@@H](CC(N)=O)C(=O)N[C@@H](CCCCNC(=O)CC[C@H](NC(=O)CC[C@H](NC(=O)COCCOCCNC(=O)CC[C@H](NC(=O)CCCCCCCCCCCCCCCCC(=O)O)C(=O)O)C(=O)O)C(=O)O)C(N)=O
[1]
  IC50: 1200 pM
[2]
  EC50 GlucR, CRE luciferase reporter gene assay in BHK cells: 24 pM
[3]
  EC50 GLP-1R, CRE luciferase reporter gene assay in BHK cells: 13 pM
[4]
  IC50: 29400 pM

B5: N^ε29-[(4S)-4-carboxy-4-[[(4S)-4-carboxy-4-[[2-[2-[2-[[2-[2-[2-[[(4S)-4-carboxy-4-(17-carboxyheptadecanoylamino)butanoyl]amino]ethoxy]ethoxy]acetyl]amino]ethoxy … (peptide)
peptide: H[Aib]QGTFTSDLSKYLDKRAAREFVAWLLNT-NH2
modifications: not fully specified
[1]
  IC50: 100 pM
[2]
  EC50 GlucR, CRE luciferase reporter gene assay in BHK cells: 220 pM
[3]
  EC50 GLP-1R, CRE luciferase reporter gene assay in BHK cells: 2.3 pM
[4]
  IC50: 11000 pM

B6: N^ε29-[(4S)-4-carboxy-4-[[(4S)-4-carboxy-4-[[2-[2-[2-[[(4S)-4-carboxy-4-(17-carboxyheptadecanoylamino)butanoyl]amino]ethoxy]ethoxy]acetyl]amino]butanoyl]amino]b … (peptide)
peptide: H[Aib]QGTFTSDLSKYLDARRAREFVQWLLNK([γGlu-γGlu-AEEA-γGlu-C18 diacid])-NH2
modifications: N-terminus assumed
SMILES: CC(C)C[C@H](NC(=O)[C@H](Cc1ccc(O)cc1)NC(=O)[C@H](CCCCN)NC(=O)[C@H](CO)NC(=O)[C@H](CC(C)C)NC(=O)[C@H](CC(=O)O)NC(=O)[C@H](CO)NC(=O)[C@@H](NC(=O)[C@H](Cc1ccccc1)NC(=O)[C@@H](NC(=O)CNC(=O)[C@H](CCC(N)=O)NC(=O)C(C)(C)NC(=O)[C@@H](N)Cc1c[nH]cn1)[C@@H](C)O)[C@@H](C)O)C(=O)N[C@@H](CC(=O)O)C(=O)N[C@@H](C)C(=O)N[C@@H](CCCNC(=N)N)C(=O)N[C@@H](CCCNC(=N)N)C(=O)N[C@@H](C)C(=O)N[C@@H](CCCNC(=N)N)C(=O)N[C@@H](CCC(=O)O)C(=O)N[C@@H](Cc1ccccc1)C(=O)N[C@H](C(=O)N[C@@H](CCC(N)=O)C(=O)N[C@@H](Cc1c[nH]c2ccccc12)C(=O)N[C@@H](CC(C)C)C(=O)N[C@@H](CC(C)C)C(=O)N[C@@H](CC(N)=O)C(=O)N[C@@H](CCCCNC(=O)CC[C@H](NC(=O)CC[C@H](NC(=O)COCCOCCNC(=O)CC[C@H](NC(=O)CCCCCCCCCCCCCCCCC(=O)O)C(=O)O)C(=O)O)C(=O)O)C(N)=O)C(C)C
[1]
  IC50: 300 pM
[2]
  EC50 GlucR, CRE luciferase reporter gene assay in BHK cells: 12 pM
[3]
  EC50 GLP-1R, CRE luciferase reporter gene assay in BHK cells: 4 pM
[4]
  IC50: 5600 pM

B7: N^ε16-[(4S)-4-carboxy-4-[[(4S)-4-carboxy-4-[[2-[2-[2-[[(4S)-4-carboxy-4-[[(4S)-4-carboxy-4-(17-carboxyheptadecanoylamino)butanoyl]amino]butanoyl]amino]ethoxy]et … (peptide)
peptide: H[Aib]QGTFTSDLSKYLDK([γGlu-γGlu-AEEA-γGlu-γGlu-C18 diacid])RRAQEFVQWLVKG-NH2
modifications: N-terminus assumed
SMILES: CC(C)C[C@H](NC(=O)[C@H](Cc1ccc(O)cc1)NC(=O)[C@H](CCCCN)NC(=O)[C@H](CO)NC(=O)[C@H](CC(C)C)NC(=O)[C@H](CC(=O)O)NC(=O)[C@H](CO)NC(=O)[C@@H](NC(=O)[C@H](Cc1ccccc1)NC(=O)[C@@H](NC(=O)CNC(=O)[C@H](CCC(N)=O)NC(=O)C(C)(C)NC(=O)[C@@H](N)Cc1c[nH]cn1)[C@@H](C)O)[C@@H](C)O)C(=O)N[C@@H](CC(=O)O)C(=O)N[C@@H](CCCCNC(=O)CC[C@H](NC(=O)CC[C@H](NC(=O)COCCOCCNC(=O)CC[C@H](NC(=O)CC[C@H](NC(=O)CCCCCCCCCCCCCCCCC(=O)O)C(=O)O)C(=O)O)C(=O)O)C(=O)O)C(=O)N[C@@H](CCCNC(=N)N)C(=O)N[C@@H](CCCNC(=N)N)C(=O)N[C@@H](C)C(=O)N[C@@H](CCC(N)=O)C(=O)N[C@@H](CCC(=O)O)C(=O)N[C@@H](Cc1ccccc1)C(=O)N[C@H](C(=O)N[C@@H](CCC(N)=O)C(=O)N[C@@H](Cc1c[nH]c2ccccc12)C(=O)N[C@@H](CC(C)C)C(=O)N[C@H](C(=O)N[C@@H](CCCCN)C(=O)NCC(N)=O)C(C)C)C(C)C
[1]
  IC50: 1600 pM
[2]
  EC50 GlucR, CRE luciferase reporter gene assay in BHK cells: 1330 pM
[3]
  EC50 GLP-1R, CRE luciferase reporter gene assay in BHK cells: 29.5 pM
[4]
  IC50: 148000 pM

B8: N^ε28-[(4S)-4-carboxy-4-[[(4S)-4-carboxy-4-[[2-[2-[2-[[2-[2-[2-[[(4S)-4-carboxy-4-(17-carboxyheptadecanoylamino)butanoyl]amino]ethoxy]ethoxy]acetyl]amino]ethoxy … (peptide)
peptide: H[Ac3c]QGTFTSDLSKYLESRRAREFVQWLLK([γGlu-γGlu-AEEA-AEEA-γGlu-C18 diacid])T-NH2
modifications: N-terminus assumed
SMILES: CC(C)C[C@H](NC(=O)[C@H](Cc1ccc(O)cc1)NC(=O)[C@H](CCCCN)NC(=O)[C@H](CO)NC(=O)[C@H](CC(C)C)NC(=O)[C@H](CC(=O)O)NC(=O)[C@H](CO)NC(=O)[C@@H](NC(=O)[C@H](Cc1ccccc1)NC(=O)[C@@H](NC(=O)CNC(=O)[C@H](CCC(N)=O)NC(=O)C1(NC(=O)[C@@H](N)Cc2c[nH]cn2)CC1)[C@@H](C)O)[C@@H](C)O)C(=O)N[C@@H](CCC(=O)O)C(=O)N[C@@H](CO)C(=O)N[C@@H](CCCNC(=N)N)C(=O)N[C@@H](CCCNC(=N)N)C(=O)N[C@@H](C)C(=O)N[C@@H](CCCNC(=N)N)C(=O)N[C@@H](CCC(=O)O)C(=O)N[C@@H](Cc1ccccc1)C(=O)N[C@H](C(=O)N[C@@H](CCC(N)=O)C(=O)N[C@@H](Cc1c[nH]c2ccccc12)C(=O)N[C@@H](CC(C)C)C(=O)N[C@@H](CC(C)C)C(=O)N[C@@H](CCCCNC(=O)CC[C@H](NC(=O)CC[C@H](NC(=O)COCCOCCNC(=O)COCCOCCNC(=O)CC[C@H](NC(=O)CCCCCCCCCCCCCCCCC(=O)O)C(=O)O)C(=O)O)C(=O)O)C(=O)N[C@H](C(N)=O)[C@@H](C)O)C(C)C
[1]
  IC50: 2200 pM
[2]
  EC50 GlucR, CRE luciferase reporter gene assay in BHK cells: 280 pM
[3]
  EC50 GLP-1R, CRE luciferase reporter gene assay in BHK cells: 11 pM
[4]
  IC50: 26200 pM
